The assay has as its target His-tagged Vps5 dimer from Chaetomium thermophilum (Chaetomium thermophilum). Description: SEC-MALS. A general note: In gel filtration, larger molecules generally elute earlier.

Drawing on PMC6173284, this text covers stoichiometry N for one substance.

Broadly, the stoichiometry N is the number of molecules, sites or subunits per partner or assembly.

Turning to “His-tagged Vps5 dimer from Chaetomium thermophilum (natural protein)”, the stoichiometry N is 2.
